# Molecular target: CHK2 (UniProt O96017)
# Assay: EMSA
# Settings: SEQ:22 is the DNA template strand, RNA is its reverse complement
# Sequence of CHK2 (O96017 whole entry): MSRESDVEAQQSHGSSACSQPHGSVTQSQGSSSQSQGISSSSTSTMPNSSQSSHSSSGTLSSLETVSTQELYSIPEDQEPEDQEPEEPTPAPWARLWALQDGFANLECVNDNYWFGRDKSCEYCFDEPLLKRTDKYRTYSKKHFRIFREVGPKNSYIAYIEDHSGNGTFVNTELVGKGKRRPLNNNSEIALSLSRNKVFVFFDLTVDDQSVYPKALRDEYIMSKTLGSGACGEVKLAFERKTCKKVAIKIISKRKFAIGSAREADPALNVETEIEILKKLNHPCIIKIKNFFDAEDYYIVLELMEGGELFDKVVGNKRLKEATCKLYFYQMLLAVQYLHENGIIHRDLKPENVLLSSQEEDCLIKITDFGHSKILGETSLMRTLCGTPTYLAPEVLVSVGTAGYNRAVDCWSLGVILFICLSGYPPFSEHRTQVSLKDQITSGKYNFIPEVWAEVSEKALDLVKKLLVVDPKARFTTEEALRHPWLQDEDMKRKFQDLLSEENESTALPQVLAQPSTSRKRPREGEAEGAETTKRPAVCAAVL
sequence,measurement,setting,value
AAGCUUCGUCAAGUCUGCAGUGAANNNNNNNNNNNNNNNNNNNNNNNNNNNNNNNNNNNNNNNNNNNNNNNNNNNNNNNNNNNNNNNNNNNNNNGAAUUCGUAGAUGUGGAUCCAUUCCC [CHK2 RAPID Cycle 2 pool],Kd,"bulk pool, 65% bound at highest protein",390 nM
AAGCUUCGUCAAGUCUGCAGUGAANNNNNNNNNNNNNNNNNNNNNNNNNNNNNNNNNNNNNNNNNNNNNNNNNNNNNNNNNNNNNNNNNNNNNNGAAUUCGUAGAUGUGGAUCCAUUCCC [CHK2 RAPID Cycle 4 pool],Kd,"bulk pool, 72% bound at highest protein",209 nM
AAGCUUCGUCAAGUCUGCAGUGAANNNNNNNNNNNNNNNNNNNNNNNNNNNNNNNNNNNNNNNNNNNNNNNNNNNNNNNNNNNNNNNNNNNNNNGAAUUCGUAGAUGUGGAUCCAUUCCC [CHK2 RAPID Cycle 6 pool],Kd,"bulk pool, 87% bound at highest protein",191 nM
AAGCUUCGUCAAGUCUGCAGUGAANNNNNNNNNNNNNNNNNNNNNNNNNNNNNNNNNNNNNNNNNNNNNNNNNNNNNNNNNNNNNNNNNNNNNNGAAUUCGUAGAUGUGGAUCCAUUCCC [CHK2 SELEX Cycle 3 pool],Kd,"bulk pool, 69% bound, FP Kd 1.6-fold higher (FIG. 8)",315 nM
AAGCUUCGUCAAGUCUGCAGUGAANNNNNNNNNNNNNNNNNNNNNNNNNNNNNNNNNNNNNNNNNNNNNNNNNNNNNNNNNNNNNNNNNNNNNNGAAUUCGUAGAUGUGGAUCCAUUCCC [CHK2 SELEX Cycle 6 pool],Kd,"bulk pool, 86% bound, FP Kd 1.6-fold higher (FIG. 8)",281 nM
AAGCUUCGUCAAGUCUGCAGUGAANNNNNNNNNNNNNNNNNNNNNNNNNNNNNNNNNNNNNNNNNNNNNNNNNNNNNNNNNNNNNNNNNNNNNNGAAUUCGUAGAUGUGGAUCCAUUCCC [N70 starting RNA library],Kd,"starting library, 59% bound at highest protein",> 1000 nM

# From patent publication US20150291952
